Assay results from US8173771B2, “Humanin receptor or humanin-like polypeptide receptor” (Keio Univeristy, priority 2005, dated 2012).

Target: T1, G-CSFR/gp130 chimera proteins (Homo sapiens, UniProt P40189+Q99062)
T1 construct: the extracellular domain of the human G-CSF receptor fused to the full transmembrane domain; expressed in transfected cells; host or cells: F11 cells
T1 sequence (Q99062+P40189 with tags, fused parts or gaps): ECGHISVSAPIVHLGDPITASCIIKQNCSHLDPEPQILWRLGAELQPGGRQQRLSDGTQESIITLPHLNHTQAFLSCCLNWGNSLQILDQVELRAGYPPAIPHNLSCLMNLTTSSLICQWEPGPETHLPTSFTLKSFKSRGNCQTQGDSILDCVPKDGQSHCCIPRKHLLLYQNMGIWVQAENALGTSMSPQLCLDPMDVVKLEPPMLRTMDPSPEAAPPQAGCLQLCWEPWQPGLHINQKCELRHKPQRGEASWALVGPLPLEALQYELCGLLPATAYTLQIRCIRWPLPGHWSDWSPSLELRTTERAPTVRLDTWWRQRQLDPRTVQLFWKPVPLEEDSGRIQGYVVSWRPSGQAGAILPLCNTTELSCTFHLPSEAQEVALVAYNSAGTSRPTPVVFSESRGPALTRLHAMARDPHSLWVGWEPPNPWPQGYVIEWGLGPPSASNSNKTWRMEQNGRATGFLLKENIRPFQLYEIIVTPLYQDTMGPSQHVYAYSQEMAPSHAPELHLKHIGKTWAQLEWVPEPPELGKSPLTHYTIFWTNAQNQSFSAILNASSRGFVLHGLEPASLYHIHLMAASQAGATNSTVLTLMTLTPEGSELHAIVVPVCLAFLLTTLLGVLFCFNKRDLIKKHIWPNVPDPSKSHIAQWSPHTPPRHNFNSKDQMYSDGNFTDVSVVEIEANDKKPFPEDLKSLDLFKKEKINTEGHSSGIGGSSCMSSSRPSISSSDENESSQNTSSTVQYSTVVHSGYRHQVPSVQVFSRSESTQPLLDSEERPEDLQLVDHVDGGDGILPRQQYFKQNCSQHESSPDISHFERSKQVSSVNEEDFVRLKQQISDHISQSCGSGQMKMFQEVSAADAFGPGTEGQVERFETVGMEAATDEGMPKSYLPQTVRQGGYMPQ
Assay: G-CSF stimulation of G-CSFR/gp130 chimera proteins in F11 cells, cell mortality by Trypan blue exclusion
Format: cell-based
Conditions: 100 nM; G-277 expressed
Description: B) F11 cells were transfected with 0.5 μg of the pcDNA3 vector or pcDNA3-APP in association with 0.5 μg of the pEFBos vector or the pEFBos vectors encoding the extracellular domain of the human G-CSF receptor fused to the full transmembrane domain and a C-terminally truncated intracytoplasmic domain of gp130 (named “G-CSFR/gp130”). G-CSFR/gp130 (277) contains the full intracytoplasmic domain of gp130 corresponding to amino acids 1-277, while G-CSFR/gp130 (25), (68), and (133) contain the intracytoplasmic domains corresponding to amino acids 1-25, 1-68, and 1-133, respectively. At 24 hr after transfection, the cells were added with indicated amounts of human G-CSF. Cell mortality was determined by Trypan blue exclusion assay at 72 hr after transfection. The results of immunoblot analysis of the expression of […] are shown in photos.
C) Instead of the pcDNA3-V6421-APP vector, pcDNA3-K595 N/M596L-APP (NL-APP), M146L-PS1 and N141-I-PS2 vectors were used to do the same experiments as in FIG. 2A. The results of immunoblot analysis of the expression of NL-APP, M146L-PS1 and N141-I-PS2 are shown in photos.
D) F11 cells were transfected with 0.5 μg of the pEFBos vector or pEF-G85R-SOD1 in association with 0.5 μg of the pEFBos vector or each pEFBos vector encoding G-CSFR/gp130 (277) or G-CSFR/gp130 (25). At 24 hr after transfection, the cells were added with indicated amounts of human G-CSF. Cell mortality was determined by Trypan blue exclusion assay at 72 hr after transfection. The results of the expression of G85R-SOD1, which were confirmed by the immunoblot analysis, are shown in photos.
Neurohybrid F11 cells and pcDNA3 vectors encoding V642I-APP, K595N/M596L-APP (NL-APP), M146L-PS1, and N141I-PS2 cDNA were prepared as already described (Hashimoto et al, 2000, 2001a, 2003). pCAG-human gp130 and pCAG-human gp130 ED (the extracellular domain of human gp130) were prepared as described (Kumanogoh et al., 1997). pcDNA3 vectors encoding the extracellular domain of the G-CSF receptor fused to the full-length transmembrane domain and various portions of the intracellular domains of human gp130, were prepared as described (Fukada et al, 1996). The intracellular domain of gp130 was C-terminally truncated. A chimera protein named G-277 contained a 277 amino acid-long full intracellular domain of gp130 (SEQ ID NO:35), while G-195, G-133, G-68, and G-25 contained the amino acids 1-195 (SEQ ID NO:36), 1-133 (SEQ ID NO:37), 1-68 (SEQ ID NO:38), and 1-25 (SEQ ID NO:39) intracellular portions, respectively. C-terminally myc-tagged human WSX-1 and myc-tagged mouse CREME9 cDNAs were amplified from human and mouse embryo cDNA (BioChain) by PCR using sets of sense primers and antisense primers: 5′-[…]-3′ (SEQ ID NO:3) and 5′-[…]-3′ (SEQ ID NO:4) for human WSX-1; 5′-[…]-3′ (SEQ ID NO:5); and 5′-[…]-3′ (SEQ ID NO:6) for mouse CREME9. Plasmids encoding C-terminally V5-tagged human CNTF-R (V %-CNTF-R) and rat IL-6R (pUCM18-rat IL-6R) were purchased from Invitrogen and American Culture Collection, respectively. A pEFBos vector comprising familial ALS (FALS) gene G85R-SOD1 was kindly provided by Dr. Shoji Tsuji. Cosmid of human wild […] was constructed by inserting a full-length gp130 into a SwaI site of pAxCAwt (TaKaRa).
The transfection procedures were as described (Hashimoto et al, 2000, 2001a, 2003). F11 cells, seeded at 7×10^4/well in 6-well dishes, were transfected with indicated vectors. Transfection efficiency in these protocols has been determined to be invariably around 70%. At 72 hrs after transfection, the Trypan blue exclusion assay and LDH assay were performed as a cell-death assay and the WST-8 assay was performed as cell-viability assays (Hashimoto et al, 2000, 2001a b, 2003). HN was added to the culture medium usually at 5 hrs after transfection, but in some cases at 24 hrs after transfection.

B1: G-CSF: human G-CSF, ligand stimulating G-CSFR/gp130 chimera proteins (protein, UniProt P09919 31-207, looked up)
Granulocyte …: TPLGPASSLPQSFLLKCLEQVRKIQGDGAALQEKLVSECATYKLCHPEELVLLGHSLGIPWAPLSSCPSQALQLAGCLSQLHSGLFLYQGLLQALEGISPELGPTLDTLQLDVADFATTIWQQMEELGMAPALQPTQGAMPAFASAFQRRAGGVLVASHLQSFLEVSYRVLRHLAQP
For B1, the “prevention of NL-APP-, M146L-PS1-, N141I-PS2-mediated neuronal cell death” value was “prevented” and the “prevention of neuronal cell death induced by V642I-APP” value was “prevented”.
